Laboratory results taken from patent US20250368734A1 (ANTENGENE BIOLOGICS, published 2025).
Residue numbers refer to the chain shown, from its start.

B1: ch36A3G8 (antibody, V domains shown)
VH: QVQLQQSGAELARPGASVKMSCKASGYTFTTYTMHWIKQRPGQDLEWIGFINPSSGYTKYNQNFKDKATLTADKSSTTAYMQLNSLTSEDSAVYYCASPYGNIYFDVWGTGTTVTVSS
VL: DIVMTQSQKFMSTAVGDRVSITCKASQNVGTAVAWYQQKPGQSPKLLIYSASNRYTGVPDRFTGSGSGTDFTLTISNMQSEDLADYFCQQYSSYPLTFGAGTKLELK
B2: ch82A1C10 (antibody, V domains shown)
VH: QVQLKESGPGLVAPSQSLSITCTVSGFSLTNYAVTWVRQPPGKGLEWLGVIWGDGSTYYHSALVSRLSITKDNSRTQVLLKLNSLQTDDTARYYCAKGGYSPFAYWGQGTLVTVSA
VL: DVVMTQTPLSLPVSLGDQASISCRSSQSLVHSNGNTYLHWYLQKPGQSPKLLIFKVSNRFSGVPDRFSGSGSGTDFTLKISRVEAEDLGVYFCSQNTHVPFTFGSGTKLEIK
B3: 119E4B4 (antibody, V domains shown)
VH: EVQLQQSGAELVKPGASVKLSCTASGFNIKDTYMHWVKQRPEQGLEWIGRIDPANGNTKYDPKFQGKATITADTSSNTAYLQLSSLTSEDTAVYYCARDYGNYEDYAMDYWGQGTSVTVSS
VL: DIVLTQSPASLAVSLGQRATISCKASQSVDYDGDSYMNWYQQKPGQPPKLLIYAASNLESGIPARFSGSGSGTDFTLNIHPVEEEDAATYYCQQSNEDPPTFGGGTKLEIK
notes: Mouse monoclonal antibody from hybridoma subclone
B4: 83A9B8 (antibody, V domains shown)
VH: EVQLQQSGPELVKPGASVKMSCKASGYTFSNYVIHWVKQKPGQGLEWIGYFNPYNDGSKYNEKFKGKATLTSDKSSSTAYMELSSLTSEDSAVYYCARGGVRRYFDVWGAGTTVTVSS
VL: DIQMTQSPSSLSASLGERVSLTCRASQDIGDNLNWLQQEPDGTIKRLIYATFSLDSGVPKRFSGSRSGSVYSLTISRLESEDFVDYFCLHYASFPYTFGGGTKLEIK
notes: as for B3
B5: ch83A9B8 (antibody, V domains shown)
VH: B4 VH
VL: B4 VL
B6: ch116F1G6 (antibody, V domains shown)
VH: B4 VH with Q6H, S30T, N31T, I34M, F51I, S58T
VL: B4 VL with D31S, D41N, S53T, V70D, R77S, F87Y, H90Q
B7: 116F1G6 (antibody, V domains shown)
VH: B4 VH with Q6H, S30T, N31T, I34M, F51I, S58T
VL: B4 VL with D31S, D41N, S53T, V70D, R77S, F87Y, H90Q
notes: as for B3
B8: 116G1G4 (antibody, V domains shown)
VH: EVQLQQSGPELVKPGASVKMSCKASGYTFTYYIMHWVKQEPGQGLQWIGYINPYNDGAYYSARFKGKATLTSDKSSSTAYMDLTSLTSEDSAVYYCARGGVRRYFDVWGAGTTVTVSS
VL: DIQMTQSPSSLSASLGERVILTCRASQDIGSNLIWLQQKPDGTIKRLIYATFNLDSGVSKRFSGSRSGSDYSLTISSLDSEDFVDYYCLQYASSPYTFGGGTKLEIK
notes: as for B3
B9: ch116G1G4 (antibody, V domains shown)
VH: B8 VH
VL: B8 VL

Assays:
[1] = molecular target: T1, human GPRC5D (human, UniProt Q9NZD1 1-345); assay: FACS, CHOS-hGPRC5D cells
T1 construct: whole, on cells; also called hGPRC5D; G-protein coupled receptor family C group 5 member D

[2] = molecular target: T1, human GPRC5D; assay: FACS, OPM-2 cells
Excerpt: (§1) The subcloning plates were screened by Mirrorball assay and the subclones with good binding ability were expanded to 24-wells for confirmation tests. The specificity and cross-reactivity of these subclones were confirmed with FACS analysis. Briefly, parental HEK293T, HEK293T cells stably over-expressing human GPRC5D protein (i.e., HEK293T-hGPRC5D), HEK293T cells stably over-expressing cynomolgus monkey GPRC5D protein (i.e., HEK293T-cynoGPRC5D), HEK293T cells stably over-expressing mouse GPRC5D protein (i.e., HEK293T-mGPRC5D), and OPM2 cells were incubated with antibodies produced by each subclone, respectively. Fluorescent dye-conjugated secondary antibody was used to detect the binding of the primary antibody with the cells. Median fluorescence intensity (MFI) was measured by FACS analysis,
(§2) As a result, 21 antibodies were discovered with unique sequences showing positive binding with HEK293T-hGPRC5D and OPM2 cells. Among which, some clones could also bind with HEK293T-cynoGPRC5D and/or HEK293T-mGPRC5D. […] ATG596 was a positive human IgG1 control antibody which comprises a VH region having an amino acid sequence as set forth in SEQ ID NO: 199, and a VL region having an amino acid sequence as set forth in SEQ ID NO: 200.

[3] = molecular target: T2, cynomolgus monkey GPRC5D (cynomolgus monkey); assay: FACS, HEK293T-cynoGPRC5D cells
T2 construct: whole, on cells; HEK293T-cynoGPRC5D cells; also called cynoGPRC5D
Excerpt: as §1, §2

[4] = molecular target: T1, human GPRC5D; assay: FACS, HEK293T-hGPRC5D cells
Excerpt: as §1, §2

T1 sequence (Q9NZD1 whole entry): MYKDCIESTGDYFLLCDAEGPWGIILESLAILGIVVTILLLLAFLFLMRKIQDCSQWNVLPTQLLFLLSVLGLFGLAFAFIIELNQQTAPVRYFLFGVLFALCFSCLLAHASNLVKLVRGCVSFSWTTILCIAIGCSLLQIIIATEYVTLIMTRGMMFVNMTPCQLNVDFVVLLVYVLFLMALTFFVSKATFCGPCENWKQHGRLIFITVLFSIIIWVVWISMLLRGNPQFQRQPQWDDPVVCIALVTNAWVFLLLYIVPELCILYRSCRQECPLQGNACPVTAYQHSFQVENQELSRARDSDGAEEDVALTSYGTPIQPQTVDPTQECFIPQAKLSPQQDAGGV

| Binder | EC50 [1] | Top [1] | % Positive [2] | MFI [2] | % Positive [3] | MFI [3] | % Positive [4] | MFI [4] |
| --- | --- | --- | --- | --- | --- | --- | --- | --- |
| B1 | 2.64 nM | 2780 | – | – | – | – | – | – |
| B2 | 2.76 nM | 2680 | – | – | – | – | – | – |
| B3 | – | – | 98.6% | 867 | 69.6% | 709 | 88.2% | 3240 |
| B4 | – | – | 98.3% | 824 | 55.7% | 278 | 94.1% | 4930 |
| B5 | 0.4 nM | 1840 | – | – | – | – | – | – |
| B6 | 0.863 nM | 1170 | – | – | – | – | – | – |
| B7 | – | – | 98.4% | 1040 | 41.4% | 82.6 | 96.2% | 42800 |
| B8 | – | – | 97.4% | 706 | 59.8% | 344 | 94.4% | 6050 |
| B9 | 0.686 nM | 2240 | – | – | – | – | – | – |
